Results reported in patent US20200369765A1 (INNATE PHARMA, published 2020).
Substitutions are numbered along the chain they refer to.

Key:
[1] = target: T1, Human Siglec-9 mutant M11 (human, UniProt Q9Y336 18-463); assay: flow cytometry, HEK293T transfectants
T1 construct: Expressed on HEK293T cells; also called Mutant 11

Human Siglec-9 mutant M9 [2] = target: T2, Human Siglec-9 mutant M9 (human, UniProt Q9Y336 18-463); assay: flow cytometry, HEK293T transfectants
T2 construct: Expressed on HEK293T cells; also called Mutant 9

[3] = target: T3, Human Siglec-9 mutant M10 (human, UniProt Q9Y336 18-463); assay: flow cytometry, HEK293T transfectants
T3 construct: Expressed on HEK293T cells; also called Mutant 10

[4] = target: T4, Human Siglec-9 mutant M14 (human, UniProt Q9Y336 18-463); assay: flow cytometry, HEK293T transfectants
T4 construct: Expressed on HEK293T cells; also called Mutant 14

Human Siglec-9 mutant M5 = target: T5, Human Siglec-9 mutant M5 (human, UniProt Q9Y336 18-463); assay: flow cytometry, HEK293T transfectants
T5 construct: Expressed on HEK293T cells; also called Mutant 5

[5] = target: T6, Human Siglec-9 mutant M15 (human, UniProt Q9Y336 18-463); assay: flow cytometry, HEK293T transfectants
T6 construct: Expressed on HEK293T cells; also called Mutant 15

Human Siglec-9 mutant M8 = target: T7, Human Siglec-9 mutant M8 (human, UniProt Q9Y336 18-463); assay: flow cytometry, HEK293T transfectants
T7 construct: Expressed on HEK293T cells; also called Mutant 8

Human Siglec-9 mutant M3 = target: T8, Human Siglec-9 mutant M3 (human, UniProt Q9Y336 18-463); assay: flow cytometry, HEK293T transfectants
T8 construct: Expressed on HEK293T cells; also called Mutant 3

Human Siglec-9 [6] = target: T9, Human Siglec-9 (human, UniProt Q9Y336 18-463); assay: flow cytometry titration on neuraminidase-treated moDCs, goat F(ab')2 anti-human IgG (Fc) PE; table under the right panel
T9 construct: On transfected CHO cells; also on YTS and KHYG-1 transfectants, primary NK cells and moDC; also called huSiglec-9; CD329
Method: (§1) moDC were desialylated for 2 hours with 25 mU neuraminidase (Roche Diagnostics).
(§2) Binding on moDCs and neuraminidase treated moDCs was tested in a titration experiment by flow cytometry. Cells were incubated 1h in Staining Buffer (SB) with primary antibodies at 10 ug/ml and a series of dilution of 1:10. They were washed two times with SB, then incubated 30 min with a Goat F(ab′)² Anti-Human IgG (Fc) PE (Jackson ImmunoResearch), and washed twice with SB.

Human Siglec-7 = target: T10, Human Siglec-7 (human, UniProt Q9Y286 19-467); assay: flow cytometry, CHO transfectants
T10 construct: Expressed on transfected CHO cells; also called huSiglec-7; CD328

Human Siglec-9 [7] = target: T9, Human Siglec-9; assay: flow cytometry titration on moDC vs neuraminidase-treated moDC
Method: as §1, §2

[8] = target: T1, Human Siglec-9 mutant M11; assay: flow cytometry, HEK293T transfectants; '-' indicates full loss of binding
Human Siglec-9 mutant M9 [9] = target: T2, Human Siglec-9 mutant M9; assay: as above
[10] = target: T3, Human Siglec-9 mutant M10; assay: as above
Human Siglec-9 mutant M6 = target: T11, Human Siglec-9 mutant M6 (human, UniProt Q9Y336 18-463); assay: flow cytometry, HEK293T transfectants
T11 construct: Expressed on HEK293T cells; also called Mutant 6

Human Siglec-9 mutant M7 = target: T12, Human Siglec-9 mutant M7 (human, UniProt Q9Y336 18-463); assay: flow cytometry, HEK293T transfectants
T12 construct: Expressed on HEK293T cells; also called Mutant 7

Siglec-9 Fc protein = target: T13, Siglec-9 Fc protein (human); assay: ELISA, blocking: Siglec-9 Fc captured on protein A, mAb dilution series, then biotinylated polymer Sia1 (Neu5Aca2-3Galb1-4GlcNAcb-PAA-biotin), streptavidin-peroxidase (top panel)
T13 construct: Produced in CHO cells; also called human Siglec-9 Fc
Method: Blocking of the interaction between Siglec-7 and -9 and sialylated ligands by anti Siglec-7/9 antibodies was tested on ELISA assays. Siglec proteins were Siglec-7 human Fc and Siglec-9 Human Fc recombinant proteins, and ligands were biotinylated polymers with sialylated trisaccharides (Neu5Aca2-3Galb1-4GcNAcb-PAA-biotin Glycotech #01-077 referred to as “Sia1” and 6′-Sialyllactose-PAA-biotin Glycotech #01-039 (referred to as “Sia2”). Briefly, Protein A was coated on ELISA plates over night at 4° C. After 3 washes and saturation, Siglec-7 Fc and Siglec-9 Fc were added at 0.8 μg/well at RT for 1H30. After 3 washes, mAbs were added at 20 ug/ml and a series of dilution of 1:5. After 3 washes, biotinylated sialylated polymers were added for 3 hours at room temperature. After 3 washes, Streptavidin-Peroxidase (Beckman) was added at 1:1000. […] The absorbance was read at 450 nm.

Human Siglec-9 [11] = target: T9, Human Siglec-9; assay: flow cytometry on fresh purified human NK cells, mean of 4 donors
Method: Binding of antibodies on fresh purified human NK cells was tested by titration experiment by flow cytometry. Cells were incubated 1h in Staining Buffer (SB) with primary antibodies at 10 ug/ml and a series of dilution of 1:10. They were washed three times with SB, then incubated 30 min with a Goat F(ab′)² Anti-Human IgG (Fc) PE (Jackson ImmunoResearch). Stainings were acquired on a BD FACS Canto II and analyzed using the FlowJo software. EC₅₀ values are shown in the table below in μg/ml (calculated using a 4-parameter logistic fit).

T12 sequence (Q9Y336 other isoform, or with tags, fused parts or gaps mutant): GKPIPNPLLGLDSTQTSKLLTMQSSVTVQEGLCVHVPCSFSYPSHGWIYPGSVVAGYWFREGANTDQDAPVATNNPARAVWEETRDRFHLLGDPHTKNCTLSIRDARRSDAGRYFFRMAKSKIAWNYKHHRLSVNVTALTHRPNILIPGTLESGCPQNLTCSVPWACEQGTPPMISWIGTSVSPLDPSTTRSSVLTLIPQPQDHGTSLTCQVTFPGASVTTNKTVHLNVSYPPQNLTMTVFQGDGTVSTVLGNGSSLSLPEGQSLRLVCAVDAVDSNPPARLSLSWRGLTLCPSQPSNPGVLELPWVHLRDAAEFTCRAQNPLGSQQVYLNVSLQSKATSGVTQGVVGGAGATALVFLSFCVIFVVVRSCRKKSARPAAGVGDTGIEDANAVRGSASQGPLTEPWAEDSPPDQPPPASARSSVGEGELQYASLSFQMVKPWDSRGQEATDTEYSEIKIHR
T3 sequence (Q9Y336 other isoform, or with tags, fused parts or gaps mutant): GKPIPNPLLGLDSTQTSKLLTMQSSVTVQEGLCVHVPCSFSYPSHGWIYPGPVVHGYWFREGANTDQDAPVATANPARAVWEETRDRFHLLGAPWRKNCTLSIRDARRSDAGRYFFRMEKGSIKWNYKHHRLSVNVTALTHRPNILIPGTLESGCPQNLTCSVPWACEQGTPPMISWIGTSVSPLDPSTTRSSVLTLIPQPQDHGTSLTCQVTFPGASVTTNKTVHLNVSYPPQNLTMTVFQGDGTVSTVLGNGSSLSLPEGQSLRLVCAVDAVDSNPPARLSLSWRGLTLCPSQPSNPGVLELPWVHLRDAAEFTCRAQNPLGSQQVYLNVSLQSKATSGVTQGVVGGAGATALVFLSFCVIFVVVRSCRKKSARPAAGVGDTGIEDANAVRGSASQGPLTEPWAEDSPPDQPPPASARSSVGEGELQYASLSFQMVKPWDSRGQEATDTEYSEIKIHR
T11 sequence (Q9Y336 other isoform, or with tags, fused parts or gaps mutant): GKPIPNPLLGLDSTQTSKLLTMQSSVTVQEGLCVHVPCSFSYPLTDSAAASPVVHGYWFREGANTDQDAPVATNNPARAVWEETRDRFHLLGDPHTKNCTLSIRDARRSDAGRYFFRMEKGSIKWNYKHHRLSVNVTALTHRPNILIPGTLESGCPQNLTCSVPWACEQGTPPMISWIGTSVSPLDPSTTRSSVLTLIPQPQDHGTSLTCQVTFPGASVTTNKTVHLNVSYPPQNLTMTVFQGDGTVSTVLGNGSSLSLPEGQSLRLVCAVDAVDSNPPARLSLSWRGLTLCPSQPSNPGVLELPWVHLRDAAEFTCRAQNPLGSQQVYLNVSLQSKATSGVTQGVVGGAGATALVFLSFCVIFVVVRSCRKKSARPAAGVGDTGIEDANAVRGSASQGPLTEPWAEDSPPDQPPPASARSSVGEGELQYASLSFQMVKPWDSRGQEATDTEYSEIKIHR
T6 sequence (Q9Y336 other isoform, or with tags, fused parts or gaps mutant): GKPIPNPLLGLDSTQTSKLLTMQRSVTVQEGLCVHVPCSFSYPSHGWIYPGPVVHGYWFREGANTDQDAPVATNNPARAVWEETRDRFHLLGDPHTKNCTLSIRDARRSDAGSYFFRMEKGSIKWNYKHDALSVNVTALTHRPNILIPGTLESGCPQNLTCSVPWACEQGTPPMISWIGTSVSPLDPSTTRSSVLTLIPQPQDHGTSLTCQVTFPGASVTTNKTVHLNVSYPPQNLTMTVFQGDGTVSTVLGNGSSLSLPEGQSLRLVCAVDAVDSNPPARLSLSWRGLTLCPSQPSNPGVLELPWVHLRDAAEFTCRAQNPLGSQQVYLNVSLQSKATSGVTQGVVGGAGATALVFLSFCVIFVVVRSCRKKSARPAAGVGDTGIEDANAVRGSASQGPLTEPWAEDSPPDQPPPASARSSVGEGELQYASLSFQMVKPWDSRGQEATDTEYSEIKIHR
T8 sequence (Q9Y336 other isoform, or with tags, fused parts or gaps mutant): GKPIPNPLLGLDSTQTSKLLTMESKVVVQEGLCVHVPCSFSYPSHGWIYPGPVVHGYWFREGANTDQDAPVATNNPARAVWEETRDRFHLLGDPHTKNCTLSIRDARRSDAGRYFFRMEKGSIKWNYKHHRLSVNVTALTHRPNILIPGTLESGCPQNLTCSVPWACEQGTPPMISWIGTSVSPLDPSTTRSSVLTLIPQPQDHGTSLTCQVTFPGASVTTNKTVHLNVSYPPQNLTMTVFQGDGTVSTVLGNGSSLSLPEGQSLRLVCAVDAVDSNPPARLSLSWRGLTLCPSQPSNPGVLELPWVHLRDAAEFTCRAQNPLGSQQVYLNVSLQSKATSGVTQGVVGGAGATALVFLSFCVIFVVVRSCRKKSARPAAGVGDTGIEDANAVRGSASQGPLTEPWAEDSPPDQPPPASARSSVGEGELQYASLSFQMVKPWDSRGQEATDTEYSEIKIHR
T4 sequence (Q9Y336 other isoform, or with tags, fused parts or gaps mutant): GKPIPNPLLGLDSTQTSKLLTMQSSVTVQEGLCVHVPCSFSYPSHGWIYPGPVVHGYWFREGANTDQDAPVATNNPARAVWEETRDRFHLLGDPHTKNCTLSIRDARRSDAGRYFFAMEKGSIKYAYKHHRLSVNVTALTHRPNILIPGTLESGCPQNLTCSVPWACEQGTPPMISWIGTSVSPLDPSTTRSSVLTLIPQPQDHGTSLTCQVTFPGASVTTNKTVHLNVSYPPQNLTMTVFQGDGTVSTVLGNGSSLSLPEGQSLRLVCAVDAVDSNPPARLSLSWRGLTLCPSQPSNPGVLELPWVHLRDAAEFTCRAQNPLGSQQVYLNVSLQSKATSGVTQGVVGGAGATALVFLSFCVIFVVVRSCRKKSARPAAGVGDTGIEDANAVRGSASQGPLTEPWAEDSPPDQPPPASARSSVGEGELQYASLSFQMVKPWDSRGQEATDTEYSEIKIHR
T10 sequence (Q9Y286 19-467): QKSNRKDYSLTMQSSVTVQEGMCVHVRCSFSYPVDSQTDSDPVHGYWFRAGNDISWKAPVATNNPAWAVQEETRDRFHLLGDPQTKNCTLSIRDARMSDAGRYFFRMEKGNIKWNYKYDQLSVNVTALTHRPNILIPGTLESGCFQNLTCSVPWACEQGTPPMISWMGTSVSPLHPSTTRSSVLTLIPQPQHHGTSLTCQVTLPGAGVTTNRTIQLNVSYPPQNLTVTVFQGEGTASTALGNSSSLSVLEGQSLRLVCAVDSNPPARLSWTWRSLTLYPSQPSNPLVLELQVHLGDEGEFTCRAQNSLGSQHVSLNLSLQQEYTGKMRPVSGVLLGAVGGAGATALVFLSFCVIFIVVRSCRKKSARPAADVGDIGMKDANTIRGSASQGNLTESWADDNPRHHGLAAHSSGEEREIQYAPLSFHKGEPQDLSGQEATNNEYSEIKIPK
T1 sequence (Q9Y336 other isoform, or with tags, fused parts or gaps mutant): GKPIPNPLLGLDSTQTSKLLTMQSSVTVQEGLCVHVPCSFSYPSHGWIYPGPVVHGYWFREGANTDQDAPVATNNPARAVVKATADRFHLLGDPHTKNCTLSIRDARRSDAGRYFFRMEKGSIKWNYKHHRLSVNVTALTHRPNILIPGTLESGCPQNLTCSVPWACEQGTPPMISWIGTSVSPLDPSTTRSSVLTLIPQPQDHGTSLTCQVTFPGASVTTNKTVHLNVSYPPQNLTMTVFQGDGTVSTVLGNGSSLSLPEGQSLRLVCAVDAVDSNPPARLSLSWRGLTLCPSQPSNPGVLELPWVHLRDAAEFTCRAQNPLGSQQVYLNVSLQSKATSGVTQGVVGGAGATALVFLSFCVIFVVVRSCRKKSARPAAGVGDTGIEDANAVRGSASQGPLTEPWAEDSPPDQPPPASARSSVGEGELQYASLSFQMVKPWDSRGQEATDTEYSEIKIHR
T7 sequence (Q9Y336 other isoform, or with tags, fused parts or gaps mutant): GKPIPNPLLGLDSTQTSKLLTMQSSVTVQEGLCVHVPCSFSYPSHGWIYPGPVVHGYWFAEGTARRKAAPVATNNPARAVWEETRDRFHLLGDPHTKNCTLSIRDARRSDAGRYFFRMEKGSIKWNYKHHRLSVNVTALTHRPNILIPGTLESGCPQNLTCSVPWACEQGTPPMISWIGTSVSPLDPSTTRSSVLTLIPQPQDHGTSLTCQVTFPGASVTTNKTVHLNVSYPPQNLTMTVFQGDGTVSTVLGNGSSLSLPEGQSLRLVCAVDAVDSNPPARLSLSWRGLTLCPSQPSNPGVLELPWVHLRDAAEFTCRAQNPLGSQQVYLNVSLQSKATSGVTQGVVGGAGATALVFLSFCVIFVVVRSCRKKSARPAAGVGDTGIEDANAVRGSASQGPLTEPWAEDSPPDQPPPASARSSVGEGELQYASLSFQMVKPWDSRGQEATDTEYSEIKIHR
T13 sequence (chain, as listed by the source limits assumed): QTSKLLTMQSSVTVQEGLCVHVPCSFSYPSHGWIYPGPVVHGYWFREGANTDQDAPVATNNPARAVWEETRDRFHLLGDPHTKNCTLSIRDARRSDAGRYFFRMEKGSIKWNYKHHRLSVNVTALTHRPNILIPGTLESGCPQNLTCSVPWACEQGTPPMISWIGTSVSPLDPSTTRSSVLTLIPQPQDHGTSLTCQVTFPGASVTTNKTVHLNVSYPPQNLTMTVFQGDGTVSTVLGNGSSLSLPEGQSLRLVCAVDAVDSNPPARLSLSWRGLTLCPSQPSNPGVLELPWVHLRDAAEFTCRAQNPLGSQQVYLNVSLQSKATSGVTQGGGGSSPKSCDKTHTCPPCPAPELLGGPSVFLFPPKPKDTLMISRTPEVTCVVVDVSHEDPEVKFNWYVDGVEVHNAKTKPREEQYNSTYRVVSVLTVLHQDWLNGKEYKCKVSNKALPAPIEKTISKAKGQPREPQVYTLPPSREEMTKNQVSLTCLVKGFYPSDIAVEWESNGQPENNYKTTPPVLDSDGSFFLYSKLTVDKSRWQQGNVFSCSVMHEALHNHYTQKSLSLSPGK

B1: mAbD (antibody, human IgG1, V domains shown)
VH: QIQLVQSGPELKKPGETVKISCKASGYTFTDYSMHWVKQAPGKGLKWMGWIITETGEPTYADDFRGRFAFSLETSANTAYLQINNLKNEDTATYFCARDFDGYWGQGTTLTVSS
VL: DILMTQSPASLSASVGETVTITCRASENIYSYLAWYQQKRGKSPQFLVYNAKTLTEGVPSRFRGSGSGTQFSLKINSLQPEDFGTYYCQHHYGFPWTFGGGTKLEIK
B1: binds [1]; binds (Human Siglec-9 mutant M9 [2]); binds [3]. B1: binds [4]; binds (Human Siglec-9 mutant M5); binds [5]. For the same binder, the binding result (Human Siglec-9 mutant M8) was “binds”, the binding result (Human Siglec-9 mutant M3) was “binds” and the EC50 (Human Siglec-9 [6]) was 0.0925 µg/mL. The binding result (Human Siglec-7) was “no binding” and the “fold change of EC50 after neuraminidase treatment of moDC” value (Human Siglec-9 [7]) was 10 fold.

B2: mAb1 (antibody, human IgG1, V domains shown)
VH: DVQLQESGPGLVKPSQSLSLTCTVTGYSITGGFAWNWIRQFPGNTLEWMGYIGYGGSTSYNPSLNSRISITRDTSKNHFFLQFNSVTTDDSATYYCARGDYLFAYWGQGTLVTVSA
VL: DIVMTQSHKFMSTSVGDRVSITCKASQDVNTAVAWYQQKPGQSPKLLIYSASYRYTGVPDRFTGSGSGTDFTFTISSVQAEDLAVYYCQQHYSTPRTFGGGTKLEIK
B2: no binding [8]; no binding (Human Siglec-9 mutant M9 [9]); no binding [10]. B2: binds [4]; binds (Human Siglec-9 mutant M6); binds (Human Siglec-9 mutant M5). B2: binds [5]; binds (Human Siglec-9 mutant M8); binds (Human Siglec-9 mutant M7). B2: binds (Human Siglec-9 mutant M3).

B3: mAb3 (antibody, human IgG1, V domains shown)
VH: B2 VH with D1E, Q5L, S7T, D89E
VL: DILMTQSPASLSASVGETVSITCRASGNIHNYLAWYLQRQGKSPQLLVYNAKTLADGVPSRFSGTGSGTQFSLKINSLQPEDFGSYYCQHFWSTPRTFGGGTKLEIK
B3: no binding [8]; no binding (Human Siglec-9 mutant M9 [9]); no binding [10]. B3: binds (Siglec-9 Fc protein); binds [4]; binds (Human Siglec-9 mutant M6). B3: binds (Human Siglec-9 mutant M5); binds [5]; binds (Human Siglec-9 mutant M8). B3: binds (Human Siglec-9 mutant M7); binds (Human Siglec-9 mutant M3).

B4: mAb2 (antibody, human IgG1, V domains shown)
VH: B2 VH with D1E, D89E
VL: B2 VL
B4: no binding [8]; no binding (Human Siglec-9 mutant M9 [9]); no binding [10]. B4: binds [4]; binds (Human Siglec-9 mutant M6); binds (Human Siglec-9 mutant M5). B4: binds [5]; binds (Human Siglec-9 mutant M8); binds (Human Siglec-9 mutant M7). B4: binds (Human Siglec-9 mutant M3).

B5: mAbA (antibody, human IgG1, V domains shown)
VH: QVQLQQPGAELVKPGSPVKLSCKASYFTFTSYWMHWVRQRPGQGLEWIGEINPSNGHTNYNEKFESKATLTVDRSSSTAYMQLSSLTSEDSAVFYCANGVESYDFDDALDYWGQGTSVTVSS
VL: DIQMTQTTSSLSASLGDRVTISCRASQDINNYLNWYQQKPDGTIKLLIYYTSRLHSGVPSRFSGSGSGTDYSLTINNLEQEDIATYFCQQGNTLPFTFGGGTKLEIK
For B5, the EC50 (Human Siglec-9 [11]) was 0.08 µg/mL, the binding result [1] was “binds” and the binding result (Human Siglec-9 mutant M9 [2]) was “binds”. B5: binds [3]; binds (Human Siglec-9 mutant M6); binds (Human Siglec-9 mutant M5). B5: binds [5]; binds (Human Siglec-9 mutant M8); binds (Human Siglec-9 mutant M7). The binding result (Human Siglec-9 mutant M3) was “binds”, the EC50 (Human Siglec-9 [6]) was 0.0282 µg/mL and the binding result (Human Siglec-7) was “no binding”. For the same binder, the “fold change of EC50 after neuraminidase treatment of moDC” value (Human Siglec-9 [7]) was 10 fold.

B6: mAbB (antibody, human IgG1, V domains shown)
VH: QVQLQQPGAELVKPGASVKLSCKASVYTFTSYWMHWVKQRPGQGLEWIGEINPSNGHTNYNEKFKTKAKLTVDKSSSTAYMQLSSLTSEDSAVYFCANGVETYDFDDAMDYWGQGTSVTVSS
VL: B5 VL with I44V, Y50F, N76S, N92D, L94F
With B6 the EC50 (Human Siglec-9 [11]) was 0.1 µg/mL, the binding result [1] was “binds” and the binding result (Human Siglec-9 mutant M9 [2]) was “binds”. B6: binds [3]; binds (Human Siglec-9 mutant M6); binds (Human Siglec-9 mutant M5). B6: binds [5]; binds (Human Siglec-9 mutant M8); binds (Human Siglec-9 mutant M7). B6: binds (Human Siglec-9 mutant M3); no binding (Human Siglec-7).

B7: mAbE (antibody, human IgG1, V domains shown)
VH: DVQLVESGGGLVQPGGSRKLSCAASGFTFSTFGMHWVRQAPEKGLEWVAYISSGSNAIYYADTVKGRFTISRDNPKNTLFLQMTSLRSEDTAMYYCASPGYGAWFAYWGQGTLVTVSA
VL: ENVLTQSPAIMSASPGEKVTMTCRASSSVSSAYLHWYQQKSGASPKLWIYSTSNLASGVPARFSGSGSGTSYSLTISSVEAEDAATYYCQQYSAYPYTFGGGTKLEIK
B7: no binding [8]; no binding (Human Siglec-9 mutant M9 [9]); no binding [10]. The EC50 (Human Siglec-9 [11]) was 0.01 µg/mL, the binding result [4] was “binds” and the binding result (Human Siglec-9 mutant M6) was “binds”. B7: binds (Human Siglec-9 mutant M5); binds [5]; binds (Human Siglec-9 mutant M7). B7: binds (Human Siglec-9 mutant M3); no binding (Human Siglec-7).

B8: mAbF (antibody, human IgG1, V domains shown)
VH: QVQLQQSGPEVVRPGVSVKISCKGSGYTFTDYSMHWVKQSHAKSLEWIGVISTYNGNTNYNQKFKGKATMTVDKSSSTAYMELARLTSEDSAIYYCARRGYYGSSSWFGYWGQGTLVTVSA
VL: DIVMTQSQKFMSTSVGDRVSVTCKASQNVGTDVAWYQQKPGQSPEALIYSASYRYSGVPDRFTGSGSGADFTLTISNVQSEDLAEYFCQQYNSFPYTFGGGTKLEIK
B8: no binding [8]; no binding (Human Siglec-9 mutant M9 [9]); no binding [10]. For the same binder, the EC50 (Human Siglec-9 [11]) was 0.3 µg/mL, the binding result [4] was “binds” and the binding result (Human Siglec-9 mutant M6) was “binds”. B8: binds (Human Siglec-9 mutant M5); binds [5]; binds (Human Siglec-9 mutant M7). B8: binds (Human Siglec-9 mutant M3); no binding (Human Siglec-7).
